According to US20260109758A1 (BIOSION, published 2026):

B1: BSI-502-001 (bispecific antibody, human IgG1, kappa)
heavy: EVQLVESGGGLVQPGGSLRLSCAASGFTFSTYGMSWVRQAPGKGLVWVATINSNGGSTSYPDSVKGRFTISRDNAKNTLYLQMNSLRAEDTAVYYCARFFRFRNAMDYWGQGTLVTVSSASTKGPSVFPLAPSSKSTSGGTAALGCLVKDYFPEPVTVSWNSGALTSGVHTFPAVLQSSGLYSLSSVVTVPSSSLGTQTYICNVNHKPSNTKVDKKVEPKSCDKTHTCPPCPAPEAQGGPSVFLFPPKPKDTLYITREPEVTCVVVDVSHEDPEVKFNWYVDGVEVHNAKTKPREEQYNSTYRVVSVLTVLHQDWLNGKEYKCQVSNKALPAPIEKTISKAKGQPREPQVYTLPPSRDELTKNQVSLTCLVKGFYPSDIAVEWESNGQPENNYKTTPPVLDSDGSFFLYSKLTVDKSRWQQGNVFSCSVMHEALHNHYTQKSLSLSPGKGGGGSGGGGSQVQLVQSGAEVKKPGASVKVSCKASGYTFTTYWMHWVRQAPGQGLEWMGVIDPSDSDTTYNQKFKGRVTMTRDTSTSTVYMELSSLRSEDTAVYYCTRSLDGYYDYWGQGTLVTVSSGGGGSGGGGSGGGGSGGGGSDIQMTQSPSSLSASVGDRVTITCRPTENIYSYLAWYQQKPGKAPKLLIYFARTLAEGVPSRFSGSGSGTDFTLTISSLQPEDFATYYCQHHYGTPWTFGGGTKVEIK
light: DIQMTQSPSSLSASVGDRVTITCRTSENIYSYLAWYQQKPGKAPKFLVYNAKTLAEGVPSRFSGSGSGTDFTLTISSLQPEDFATYYCQHYYGPPTWTFGQGTKVEIKRTVAAPSVFIFPPSDEQLKSGTASVVCLLNNFYPREAKVQWKVDNALQSGNSQESVTEQDSKDSTYSLSSTLTLSKADYEKHKVYACEVTHQGLSSPVTKSFNRGEC
notes: huC2C1A1A1-V15 IgG with an anti-TSLP scFv (hu1C5F12E9-V8, VH-VL) at the C-terminus of the heavy chain
B2: BSI-502-002 (bispecific antibody, human IgG1, kappa)
heavy: EVQLVESGGGLVQPGGSLRLSCAASGFTFSTYGMSWVRQAPGKGLVWVATINSNGGSTSYPDSVKGRFTISRDNAKNTLYLQMNSLRAEDTAVYYCARFFRFRNAMDYWGQGTLVTVSSASTKGPSVFPLAPSSKSTSGGTAALGCLVKDYFPEPVTVSWNSGALTSGVHTFPAVLQSSGLYSLSSVVTVPSSSLGTQTYICNVNHKPSNTKVDKKVEPKSCDKTHTCPPCPAPEAQGGPSVFLFPPKPKDTLYITREPEVTCVVVDVSHEDPEVKFNWYVDGVEVHNAKTKPREEQYNSTYRVVSVLTVLHQDWLNGKEYKCQVSNKALPAPIEKTISKAKGQPREPQVYTLPPSRDELTKNQVSLTCLVKGFYPSDIAVEWESNGQPENNYKTTPPVLDSDGSFFLYSKLTVDKSRWQQGNVFSCSVMHEALHNHYTQKSLSLSPGKGGGGSGGGGSDIQMTQSPSSLSASVGDRVTITCRPTENIYSYLAWYQQKPGKAPKLLIYFARTLAEGVPSRFSGSGSGTDFTLTISSLQPEDFATYYCQHHYGTPWTFGGGTKVEIKGGGGSGGGGSGGGGSGGGGSQVQLVQSGAEVKKPGASVKVSCKASGYTFTTYWMHWVRQAPGQGLEWMGVIDPSDSDTTYNQKFKGRVTMTRDTSTSTVYMELSSLRSEDTAVYYCTRSLDGYYDYWGQGTLVTVSS
light: B1 light
notes: huC2C1A1A1-V15 IgG with an anti-TSLP scFv (VL-VH) at the C-terminus of the heavy chain; AQQ and YTE already stand in the entry
B3: BSI-502-003 (bispecific antibody, human IgG1, kappa)
heavy: EVQLVESGGGLVQPGGSLRLSCAASGFTFSTYGMSWVRQAPGKGLVWVATINSNGGSTSYPDSVKGRFTISRDNAKNTLYLQMNSLRAEDTAVYYCARFFRFRNAMDYWGQGTLVTVSSGGGGSGGGGSGGGGSGGGGSDIQMTQSPSSLSASVGDRVTITCRTSENIYSYLAWYQQKPGKAPKFLVYNAKTLAEGVPSRFSGSGSGTDFTLTISSLQPEDFATYYCQHYYGPPTWTFGQGTKVEIKGGGGSGGGGSQVQLVQSGAEVKKPGASVKVSCKASGYTFTTYWMHWVRQAPGQGLEWMGVIDPSDSDTTYNQKFKGRVTMTRDTSTSTVYMELSSLRSEDTAVYYCTRSLDGYYDYWGQGTLVTVSSASTKGPSVFPLAPSSKSTSGGTAALGCLVKDYFPEPVTVSWNSGALTSGVHTFPAVLQSSGLYSLSSVVTVPSSSLGTQTYICNVNHKPSNTKVDKKVEPKSCDKTHTCPPCPAPEAQGGPSVFLFPPKPKDTLYITREPEVTCVVVDVSHEDPEVKFNWYVDGVEVHNAKTKPREEQYNSTYRVVSVLTVLHQDWLNGKEYKCQVSNKALPAPIEKTISKAKGQPREPQVYTLPPSRDELTKNQVSLTCLVKGFYPSDIAVEWESNGQPENNYKTTPPVLDSDGSFFLYSKLTVDKSRWQQGNVFSCSVMHEALHNHYTQKSLSLSPG
light: DIQMTQSPSSLSASVGDRVTITCRPTENIYSYLAWYQQKPGKAPKLLIYFARTLAEGVPSRFSGSGSGTDFTLTISSLQPEDFATYYCQHHYGTPWTFGGGTKVEIKRTVAAPSVFIFPPSDEQLKSGTASVVCLLNNFYPREAKVQWKVDNALQSGNSQESVTEQDSKDSTYSLSSTLTLSKADYEKHKVYACEVTHQGLSSPVTKSFNRGEC
notes: hu1C5F12E9-V8 IgG with an anti-IL4R scFv (huC2C1A1A1-V15, VH-VL) at the N-terminus of the heavy chain; AQQ and YTE already stand in the entry
B4: BSI-502-004 (bispecific antibody, human IgG1, kappa)
heavy: DIQMTQSPSSLSASVGDRVTITCRTSENIYSYLAWYQQKPGKAPKFLVYNAKTLAEGVPSRFSGSGSGTDFTLTISSLQPEDFATYYCQHYYGPPTWTFGQGTKVEIKGGGGSGGGGSGGGGSGGGGSEVQLVESGGGLVQPGGSLRLSCAASGFTFSTYGMSWVRQAPGKGLVWVATINSNGGSTSYPDSVKGRFTISRDNAKNTLYLQMNSLRAEDTAVYYCARFFRFRNAMDYWGQGTLVTVSSGGGGSGGGGSQVQLVQSGAEVKKPGASVKVSCKASGYTFTTYWMHWVRQAPGQGLEWMGVIDPSDSDTTYNQKFKGRVTMTRDTSTSTVYMELSSLRSEDTAVYYCTRSLDGYYDYWGQGTLVTVSSASTKGPSVFPLAPSSKSTSGGTAALGCLVKDYFPEPVTVSWNSGALTSGVHTFPAVLQSSGLYSLSSVVTVPSSSLGTQTYICNVNHKPSNTKVDKKVEPKSCDKTHTCPPCPAPEAQGGPSVFLFPPKPKDTLYITREPEVTCVVVDVSHEDPEVKFNWYVDGVEVHNAKTKPREEQYNSTYRVVSVLTVLHQDWLNGKEYKCQVSNKALPAPIEKTISKAKGQPREPQVYTLPPSRDELTKNQVSLTCLVKGFYPSDIAVEWESNGQPENNYKTTPPVLDSDGSFFLYSKLTVDKSRWQQGNVFSCSVMHEALHNHYTQKSLSLSPG
light: B3 light
notes: hu1C5F12E9-V8 IgG with an anti-IL4R scFv (VL-VH) at the N-terminus of the heavy chain; AQQ and YTE already stand in the entry

Key:
[1] = molecular target: T1, human IL4Rα expressed on 293F-IL4Rα cell surface (human, UniProt P24394 26-825); test: cell-based blocking FACS on 293F-IL4Rα cells; blocked ligand biotin human IL4
T1 construct: whole, on cells; also called human IL4Rα-expressing cells; cell surface IL4R
Procedure: Then, 1×10⁵ cells per well were incubated in 96 well-plates in 100 μL of serially diluted bispecific antibodies, the positive controls or negative control (starting at 100 nM with a 5-fold serial dilution) in FACS buffer for 40 minutes on ice. […] The plates were washed twice with FACS buffer, and then added and incubated for 40 minutes at 4° C. in dark with 100 μL/well R-Phycoerythrin Streptavidin (1:500 dilution in FACS buffer, Jackson Immunoresearch, Cat #016-110-084). Cells were washed twice and resuspended in FACS buffer. Fluorescence was measured using a Becton Dickinson FACS Canto II-HTS equipment. Data was analyzed using Graphpad Prism and IC₅₀ values were reported.

[2] = molecular target: T1, human IL4Rα expressed on 293F-IL4Rα …; test: flow cytometry on 293F-IL4Rα cells, PE anti-human IgG Fc
Procedure: Cells were washed twice with FACS buffer, and added with 100 μL/well R-Phycoerythrin AffiniPure Goat Anti-Human IgG, Fey fragment specific (1:1000 dilution in FACS buffer, Jackson Immunoresearch, Cat #109-115-098). Following an incubation of 40 minutes at 4° C. in dark, cells were washed three times and resuspended in FACS buffer. Fluorescence was measured using a Becton Dickinson FACS Canto II-HTS equipment. Data was analyzed using Graphpad Prism and EC₅₀ values were reported.

Binder | IC50 [1] [nM] | EC50 [2] [nM]
B1 | 0.137 | 0.18
B2 | 0.144 | 0.173
B3 | 0.204 | 0.203
B4 | 0.168 | 0.169
